The results in this text go back to US9370555B2, “Surfactant protein D for the treatment of disorders associated with lung injury” (priority 1998, dated 2016).

The subject of series [1] is premature lambs. The series can be described thus: Pulmonary inflammation in ventilated premature lambs (BALF cells, NE activity, cytokine mRNA and protein, flow cytometry). The class given is in vivo, sheep. The method, then:
A five hour study period was chosen to detect changes in proinflammatory cytokine mRNAs induced by initial ventilation (Naik A S, et al. Effects of ventilation with different positive end-expiratory pressures on cytokine expression in the preterm lamb lung. Am J Respir Crit Care Med 2001; 164:494-498). After five hours, lambs were ventilated with FiO2=1 for five minutes, then given 100 mg pentobarbital intravascularly, after which the endotracheal tube was clamped to permit oxygen absorption atelectasis (Ikegami M, et al. Intratracheal recombinant surfactant protein D prevents endotoxin shock in the newborn preterm lamb. Am J Respir Crit Care Med 2006; 173:1342-1347; Ikegami M, Jobe A. Postnatal lung inflammation increased by ventilation of preterm lambs exposed antenatally to E. coli endotoxin. Pediatr Res 2002; 52:356-362). After the thorax was opened, the deflation limb of pressure-volume curve was measured (Kramer B W, et al. Surfactant protein A recruits neutrophils into the lungs of ventilated preterm lambs. Am J Respir Crit Care Med 2001; 163:158-165; Ikegami M, et al. Intratracheal recombinant surfactant protein D prevents endotoxin shock in the newborn preterm lamb. Am J Respir Crit Care Med 2006; 173:1342-1347). Lung tissue of the right lower lobe was frozen in liquid nitrogen for RNA isolation and measurement of neutrophil elastase (NE) activity (Lowry O H, et al. Protein measurement with the Folin phenol reagent. J Biol Chem 1951; 193:265-275; Watterberg K L, et al. Secretory leukocyte protease inhibitor and lung inflammation in developing bronchopulmonary dysplasia. J Pediatr 1994; 125:264-269). NE is a potent serine proteinase, responsible for tissue destruction in the adult lung with emphysema (Shapiro S D, et al. Neutrophil elastase contributes to cigarette smoke-induced emphysema in mice. Am J Pathol 2003; 163:2329-2335). In the preterm newborn lung, increased NE activity affects lung remodeling and increases alveolar epithelial apoptosis and the development of BPD (Watterberg K L, et al. Secretory leukocyte protease inhibitor and lung inflammation in developing bronchopulmonary dysplasia. J Pediatr 1994; 125:264-269; Yasumatsu R, et al. SERPINB1 upregulation is associated with in vivo complex formation with neutrophil elastase and cathepsin G in a baboon model of bronchopulmonary dysplasia. Am J Physiol Lung Cell Mol Physiol 2006; 291:L619-L627). NE activity was assessed by a spectrophotometric assay using a chromogenic substrate specific for NE, N-methoxy-succinyl-Ala-Ala-Pro-Val pNA (Yasumatsu R, et al. SERPINB1 upregulation is associated with in vivo complex formation with neutrophil elastase and cathepsin G in a baboon model of bronchopulmonary dysplasia. Am J Physiol Lung Cell Mol Physiol 2006; 291:L619-L627).
; Lung tissue of the right middle lobe was homogenized in 0.9% NaCl and supernatant after centrifugation at 1,000×g for 15 minutes and frozen for ELISA of proinflammatory cytokine proteins (Kramer B W, et al. Surfactant protein A recruits neutrophils into the lungs of ventilated preterm lambs. Am J Respir Crit Care Med 2001; 163:158-165; Ikegami M, et al. Intratracheal recombinant surfactant protein D prevents endotoxin shock in the newborn preterm lamb. Am J Respir Crit Care Med 2006; 173:1342-1347). BALF was recovered from the left lung (Ikegami M, et al. Whitsett J A. Intratracheal recombinant surfactant protein D prevents endotoxin shock in the newborn preterm lamb. Am J Respir Crit Care Med 2006; 173:1342-1347) for further analyses. Total proteins were analyzed (Lowry O H, et al. Protein measurement with the Folin phenol reagent. J Biol Chem 1951; 193:265-275) in the supernatant of BALF after 10 minutes of centrifugation at 284×g. The right upper lobe was inflation-fixed at 30 cm H2O for morphology (Ikegami M, et al. Surfactant protein-D regulates the postnatal maturation of pulmonary surfactant lipid pool sizes. J Appl Physiol 2009; 106:1545-1552). […]

A short description of series [2]: Ultrastructure of surfactant mixtures (electron micrographs). The class given is physicochemical. The conditions noted are these: SURVANTA mixed with buffer or rhSP-D. The method, then: (§1) Surface tension was measured by captive bubble surfactometer (Schoel M, et al. The captive bubble method for the evaluation of pulmonary surfactant: surface tension, area, and volume calculations. Biochim Biophys Acta 1994; 1200:281-290) on 3 μL of samples containing 15 μg/μL […]® and 2% rhSP-D or buffer in the presence or absence of surfactant inhibitor (21 μg/μL plasma protein) (Ikegami M, et al. Characteristics of surfactant from SP-A deficient mice. Am J Physiol Lung Cell Mol Physiol 1998; 275:L247-L25). This amount of plasma protein relative to […]® was 30% lower than the concentration that is known to inhibit the activity of […]® in the ventilated premature newborn lamb lung in vivo (Wada K, et al. Tidal volume effects on surfactant treatment responses with the initiation of ventilation in preterm lambs. J Appl Physiol 1997; 83:1054-1061). The influence of rhSP-D on the ultrastructure of […]® was studied as previously described (Schmiedl A, et al. Influence of plasma and inflammatory proteins on the ultrastructure of exogenous surfactant. J Electron Microsc (Tokyo) 2004; 53:407-416).

The nature of series [3]: Surface tension by captive bubble surfactometer. The format is physicochemical. The following applies: 15 μg/μL SURVANTA with 2% rhSP-D or buffer. As to the method:
as §1

The subject of series [4] is premature lambs. As to the kind of experiment: Lung function and morphology in ventilated premature lambs. The format is in vivo, sheep.
Setting [5] is: CD45-positive cells from BALF, flow cytometry.
Where [6] appears, read: premature lambs, five hours of ventilation, +rhSP-D vs control.
Setting [7] is: premature lambs, mean levels decreased by rhSP-D.

Entries after “also recorded” stand apart in the source; their conditions may differ.

B1: rhSP-D: recombinant human surfactant protein D, given mixed with SURVANTA to premature lambs (protein, UniProt P35247 21-375, looked up)
Pulmonary …: AEMKTYSHRTMPSACTLVMCSSVESGLPGRDGRDGREGPRGEKGDPGLPGAAGQAGMPGQAGPVGPKGDNGSVGEPGPKGDTGPSGPPGPPGVPGPAGREGPLGKQGNIGPQGKPGPKGEAGPKGEVGAPGMQGSAGARGLAGPKGERGVPGERGVPGNTGAAGSAGAMGPQGSPGARGPPGLKGDKGIPGDKGAKGESGLPDVASLRQQVEALQGQVQHLQAAFSQYKKVELFPNGQSVGEKIFKTAGFVKPFTEAQLLCTQAGGQLASPRSAAENAALQQLVVAKNEAAFLSMTDSKTEGKFTYPTGESLVYSNWAPGEPNDDGGSEDCVEIFTNGKWNDRACGEKRLVVCEF
With B1, in the series on premature lambs [1] (setting [5]), the “expression of CD11b” value is “did not influence expression” and the “expression of CD44” value is on record as “did not influence expression”. Besides, the “proteins in BALF” value in the series with premature lambs [1] (premature lambs, +rhSP-D group, control group 60±7) turned out to be 57 ± 11 mg/kg. For the same molecule, in the series with premature lambs [1] (premature lambs, five hours of ventilation), the lung inflammation result was “decreased in all the lambs treated with rhSP-D”. Also, in the series with premature lambs [1] (setting [6]), the “neutrophils in BALF” value is on record as “significantly decreased; also recorded: suppressed” and the “total inflammatory cell numbers in BALF” value is reported as “significantly decreased; also recorded: suppressed”. Further, the “IL-1β protein in the lung” value in the series on premature lambs [1] (premature lambs, ELISA) was “not significantly influenced”. For the same molecule, the “IL-8 protein in lung homogenates” value in the series on premature lambs [1] (premature lambs, ELISA, +rhSP-D vs control) is recorded as “significantly decreased”. The “IL-1β mRNA in the lung” value in the series with premature lambs [1] (premature lambs, RT-PCR) was “not significantly influenced; also recorded: generally lower”. Further, in the series with premature lambs [1] (premature lambs, RT-PCR, +rhSP-D vs control), the “IL-8 mRNA in the lung” value was “significantly decreased; also recorded: significantly suppressed”. Besides, the “TNF-α mRNA expression” value in the series with premature lambs [1] (premature lambs, data not shown) was “similarly present at low levels in both groups”. Besides, in the series on premature lambs [1] (setting [7]), the “KC mRNA in the lung” value is reported as “not significantly different; also recorded: generally lower” and the “MCP1 mRNA in the lung” value is given as “not significantly different; also recorded: generally lower”. For the same molecule, in the series with premature lambs [1] (premature lambs, mean, P=0.06, not statistically significant), the “IL-6 mRNA expression in the lung” value is on record as “generally lower”. In addition, the “IL-6 protein in the lung” value with premature lambs [1] (premature lambs, mean, P=0.1, not statistically significant) is on record as “lower”. Besides, in the series on premature lambs [1] (premature lambs, rhSP-D added to SURVANTA vs control, P<0.05), the “neutrophil elastase (NE) activity in the lung” value is “decreased NE activity”. The ultrastructure of surfactant entry in series [2] was “causing the formation of lipid aggregates and multilayers; also recorded: from simple lipid layers to the mixture of multiple lipid layers and lipid aggregates”. Further, the minimum surface tension result in series [3] (absence of plasma protein) is reported as “low”. Also, the minimum surface tension entry in series [3] (presence of surfactant inhibitor (21 μg/μL plasma protein)) is given as “remaining low; also recorded: low minimum surface tension in the presence of plasma protein”. The “mean PIP required to regulate VT at 8 to 9 ml/kg” value in the series on premature lambs [4] (premature lambs after surfactant at 20 minutes of age, same for controls) is recorded as 27 cm H2O. Further, the Po2/Fio2 result in the series with premature lambs [4] (premature lambs, 7 mg rhSP-D mixed with SURVANTA 100 mg/kg vs SURVANTA+buffer control, P<0.01) was “higher”. Further, the alveolar fluid result with premature lambs [4] (premature lambs, +rhSP-D vs control) is recorded as “More fluid was noted in alveoli of the control lambs; also recorded: More alveolar fluid was observed in control lambs”. The “modified ventilation index (MVI)” value in the series on premature lambs [4] (premature lambs, +rhSP-D vs control, after 240 minutes, not statistically significant) was “tends to be better (lower)”. The “deflation limb of pressure-volume curves” value with premature lambs [4] (premature lambs, +rhSP-D vs control, after five hours) is listed as “not different”.
